{"source": "paper doi:10.1101/2021.05.09.442808", "about": "(bioRxiv, 2021)", "binders": {"B1": {"name": "S2P6 Fab fragment (Fab, V domains shown)", "VH": "EVQLVQSGAEVKKPGASVKVSCKASGYTFTSQYMHWVRQAPGQGLEWIGIINPSGVHTSYAQKFQGRVTLTRDTSTSTLYMELSSLRSEDTAVYYCARGSPKGAFDYWGQGTLVTVSS", "VL": "not shown"}}, "target": "SARS-CoV-2 S 2P prefusion-stabilized ectodomain trimer (SARS-CoV-2 (Wuhan-Hu-1), stabilised)", "assay": "SPR"}
{"binder": "B1", "values": [{"measurement": "Kd", "value": 7, "unit": "nM"}]}
